Experimental data as given in PMC12955825 (Med (New York, N.Y.), 2025).
Bridge positions count the residues as written; N and C are the ends. Ends that are not written are not given here.

Experiments:
[1] = biological target: T1, CALR, human recombinant protein (human, UniProt P27797 18-417); test: circular dichroism
T1 sequence (looked up): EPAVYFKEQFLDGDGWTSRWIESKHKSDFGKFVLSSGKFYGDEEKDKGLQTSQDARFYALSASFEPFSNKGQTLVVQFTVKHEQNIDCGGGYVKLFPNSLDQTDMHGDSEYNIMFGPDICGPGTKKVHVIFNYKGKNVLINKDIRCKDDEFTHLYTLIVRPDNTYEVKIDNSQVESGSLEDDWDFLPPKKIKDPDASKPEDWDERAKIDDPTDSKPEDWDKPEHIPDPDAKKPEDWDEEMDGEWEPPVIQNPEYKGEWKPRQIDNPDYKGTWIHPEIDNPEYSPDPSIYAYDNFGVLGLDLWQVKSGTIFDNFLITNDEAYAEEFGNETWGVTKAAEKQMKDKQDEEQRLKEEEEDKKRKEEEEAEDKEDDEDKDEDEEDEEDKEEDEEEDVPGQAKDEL

[2] = biological target: T2, cystatin-A (human, UniProt P01040 1-98); test: phage-binding assay
T2 sequence (looked up): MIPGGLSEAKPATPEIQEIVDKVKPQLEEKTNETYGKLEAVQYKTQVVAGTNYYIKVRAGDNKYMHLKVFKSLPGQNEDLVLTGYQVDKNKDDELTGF

[3] = biological target: T3, histidine-rich glycoprotein (human, UniProt P04196 19-525); test: phage-binding assay
T3 sequence (looked up): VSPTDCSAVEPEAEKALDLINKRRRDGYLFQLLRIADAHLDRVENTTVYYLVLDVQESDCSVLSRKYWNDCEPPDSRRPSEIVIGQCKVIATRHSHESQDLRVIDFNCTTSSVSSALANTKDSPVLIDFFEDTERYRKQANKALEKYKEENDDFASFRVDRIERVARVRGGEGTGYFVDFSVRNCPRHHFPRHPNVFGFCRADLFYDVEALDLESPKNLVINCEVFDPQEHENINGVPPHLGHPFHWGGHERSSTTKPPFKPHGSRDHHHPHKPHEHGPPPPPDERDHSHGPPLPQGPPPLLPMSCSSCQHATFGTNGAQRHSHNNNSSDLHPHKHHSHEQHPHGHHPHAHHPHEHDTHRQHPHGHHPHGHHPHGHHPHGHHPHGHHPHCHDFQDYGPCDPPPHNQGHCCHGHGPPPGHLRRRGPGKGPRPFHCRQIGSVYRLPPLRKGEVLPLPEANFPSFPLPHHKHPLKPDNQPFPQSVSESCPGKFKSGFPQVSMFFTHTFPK

[4] = biological target: T4, CASQ1, human recombinant protein (human, UniProt P31415 35-396); test: phage-binding assay
T4 sequence (looked up): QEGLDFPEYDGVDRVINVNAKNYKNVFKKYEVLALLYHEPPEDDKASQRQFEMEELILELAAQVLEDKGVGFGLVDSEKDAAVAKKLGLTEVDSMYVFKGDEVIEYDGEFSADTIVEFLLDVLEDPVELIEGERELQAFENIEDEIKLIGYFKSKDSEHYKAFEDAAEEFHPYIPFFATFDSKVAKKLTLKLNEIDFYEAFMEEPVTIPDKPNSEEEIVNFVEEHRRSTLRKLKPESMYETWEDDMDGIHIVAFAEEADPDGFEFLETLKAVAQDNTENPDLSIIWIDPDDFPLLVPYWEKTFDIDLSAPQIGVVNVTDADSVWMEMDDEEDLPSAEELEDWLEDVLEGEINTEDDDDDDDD

[5] = biological target: HSP27, human recombinant protein (human, UniProt P04792 1-205); test: phage-binding assay
Sequence of HSP27, human recombinant protein (P04792 whole entry): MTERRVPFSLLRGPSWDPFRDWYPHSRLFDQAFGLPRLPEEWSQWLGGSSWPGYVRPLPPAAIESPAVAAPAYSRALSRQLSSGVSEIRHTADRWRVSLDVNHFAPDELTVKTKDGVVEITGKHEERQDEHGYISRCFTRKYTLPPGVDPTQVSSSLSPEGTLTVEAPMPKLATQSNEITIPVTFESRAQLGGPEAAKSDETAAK

Binder: CRQRPASGC (disulfide 1-9) [CRQRPASGC peptide (C1-C9 disulfide bridge)]
- binding result [1]: binds

Binder: CEARASGSRC (disulfide 1-10) [CEARASGSRC-displaying phage]
- binding result [2]: binds

Binder: CVGQVGGRRC (disulfide 1-10) [CVGQVGGRRC-displaying phage]
- binding result [3]: binds

Binder: CLRGFPALVC (disulfide 1-10) [CLRGFPALVC peptide (C1-C10 disulfide bridge)]
- binding result [4]: binds

Binder: CSEIGVRAC (disulfide 1-9) [CSEIGVRAC peptide (C1-C9 disulfide bridge)]
- binding result [5]: binds
